± gives the uncertainty stated by the source.

The text below walks through data of the Human Domainome abundance scans (Beltran et al. 2025).

First the molecules themselves.
B1: PDZ and LIM domain protein 2, residues 284 to 339; numbered along this chain, Q96JY6 (parent)
chain: HTCEKCSTSIANQAVRIQEGRYRHPGCYTCADCGLNLKMRGHFWVGDELYCEKHAR

In the data set the parent is B1. Kind of data set: abundance fitness (aPCA) (normalised: wild type 0, dead -1); higher = more abundant; growth selection in yeast, the domain comes from the species named. The note with it: Homo sapiens.
In the case of HTCEKCSTSIANQAVRIQEGRYRHPGCYTCADCGLNLKMRGHFWVGDELYCEVHAR [K53V], the abundance fitness was 0.007 ± 0.085.
With HTCEKCSTSIANQAVRIQEGRYRHPGCYTCADCGLNLKMRGHFWVGDELYCEGHAR [K53G] the figure was -0.158 ± 0.081; with HTCEKCSTSIANQAVRIQEGRYRHPFCYTCADCGLNLKMRGHFWVGDELYCEKHAR [G26F], 0.19 ± 0.091.
In the case of HTCEKCSTSIANQAVRIQEGRYRHPICYTCADCGLNLKMRGHFWVGDELYCEKHAR [G26I] it was 0.08 ± 0.2; in that of HTCEKCSTSIANQAVRIQEGRYRHPKCYTCADCGLNLKMRGHFWVGDELYCEKHAR [G26K], 0.209 ± 0.084; in that of HTCEKCSTSIANQAVRIQEGRYRHPLCYTCADCGLNLKMRGHFWVGDELYCEKHAR [G26L], 0.122 ± 0.064.
In the case of HTCEKCSTSIANQAVRIQENRYRHPGCYTCADCGLNLKMRGHFWVGDELYCEKHAR [G20N] it was 0.006 ± 0.081; in that of HTCEKCSTSIANQAVRIQEGRYRHPGCYTCADCGLNLKMRGHFWVGKELYCEKHAR [D47K], 0.052 ± 0.12; in that of HTCCKCSTSIANQAVRIQEGRYRHPGCYTCADCGLNLKMRGHFWVGDELYCEKHAR [E4C], 0.033 ± 0.099.
Regarding HTCYKCSTSIANQAVRIQEGRYRHPGCYTCADCGLNLKMRGHFWVGDELYCEKHAR [E4Y], the abundance fitness came out at 0.056 ± 0.22.
In the case of HTCEKCSTSIANQAVRIQEGRYRHPGEYTCADCGLNLKMRGHFWVGDELYCEKHAR [C27E] it was -0.105 ± 0.12; in that of HTCEKCSTSIANQAVRIQEGRYRHPGWYTCADCGLNLKMRGHFWVGDELYCEKHAR [C27W], -0.602 ± 0.12.
HTCEKCSTSIANQAVRIQEGRYRHPGYYTCADCGLNLKMRGHFWVGDELYCEKHAR [C27Y]: the abundance fitness is -0.885 ± 0.22.
With HTCEKCSTSIANQAVRIQEGRYRHPGPYTCADCGLNLKMRGHFWVGDELYCEKHAR [C27P] the figure was -0.425 ± 0.083.
Regarding HTCEKCSTSIANQAVRIQEGRYRHPGCYTCADCGLNLKMRGHFWVGDELYCEKHMR [A55M], the abundance fitness was -0.066 ± 0.091.
In the case of HTCEKCSTSIANQAVRIQEGRYRHPGCYTCADCGTNLKMRGHFWVGDELYCEKHAR [L35T] it was 0.167 ± 0.11; in that of HTCEKCSTSIANQAVRIQEGRYRHPGCYTCADCGPNLKMRGHFWVGDELYCEKHAR [L35P], -0.518 ± 0.14.
With GTCEKCSTSIANQAVRIQEGRYRHPGCYTCADCGLNLKMRGHFWVGDELYCEKHAR [H1G] the figure was -0.247 ± 0.36; with HTCEKCSTSIANQAVRIQEGRYRHPGCYTCEDCGLNLKMRGHFWVGDELYCEKHAR [A31E], 0.082 ± 0.12; with HTCEKCSTSIANQAVRIQEGRYRHPGCYTCCDCGLNLKMRGHFWVGDELYCEKHAR [A31C], -0.146 ± 0.12.
In the case of HTCEKCSTSIANQAVRLQEGRYRHPGCYTCADCGLNLKMRGHFWVGDELYCEKHAR [I17L] it was -0.121 ± 0.076.
HTCEKFSTSIANQAVRIQEGRYRHPGCYTCADCGLNLKMRGHFWVGDELYCEKHAR [C6F]: the abundance fitness was -0.667 ± 0.24.
In the case of HTCEKTSTSIANQAVRIQEGRYRHPGCYTCADCGLNLKMRGHFWVGDELYCEKHAR [C6T] it was -0.48 ± 0.17.
Consider HTCEKCSTSIANQAVRIQEGRYRHPGCYTCADCGLNLKMRGHFWVGDEYYCEKHAR [L49Y], for which the abundance fitness was -0.269 ± 0.25.
For HTCEKCSTSINNQAVRIQEGRYRHPGCYTCADCGLNLKMRGHFWVGDELYCEKHAR [A11N], the abundance fitness is 0.351 ± 0.13.
For the variant HTCEKCSTSIANQAVRIQEGRYRHMGCYTCADCGLNLKMRGHFWVGDELYCEKHAR [P25M], the abundance fitness amounted to 0.075 ± 0.085.
With HTCEKCSTSIANQAVRIQEGRYRHPGCYTCADGGLNLKMRGHFWVGDELYCEKHAR [C33G] the figure was -0.682 ± 0.061; with HTCEKCSTSIANQAVRIQEGRYRHPGCYTCADWGLNLKMRGHFWVGDELYCEKHAR [C33W], -0.765 ± 0.17.
In the case of HTCEKCSTSIANQAVRIQEGRYRHPGCYTCADCGLNLKMRGHFWVGDELHCEKHAR [Y50H] it was -0.083 ± 0.2; in that of HTCEKCSTSIANQAVRIQEGRYRHPGCYTCADCGLNLKMRGHFWVGDELACEKHAR [Y50A], -0.188 ± 0.086; in that of HTCEKCSTSIANQAVRIQEGRYRHPGCYTCADCGLNLKMRGHFWVGDELYCNKHAR [E52N], 0.18 ± 0.13.
As for HTCEKCSTSIANQAVRIQEGRYRHPGCYTCADCGLNLKMRGHFWVGDELYCPKHAR [E52P], the abundance fitness was 0.183 ± 0.12.
As for HTCEKCSTSIANQAVRIQEGRYRHPGCYTCADCGLNLKMRGHFWVGDELYCLKHAR [E52L], the abundance fitness is -0.156 ± 0.098.
With HTCEKCSTSIANQAVRIQEGRYRHPGCYTCADCTLNLKMRGHFWVGDELYCEKHAR [G34T] the figure was -0.177 ± 0.1; with HTCEKCSTSIANQAVRIQEGRYRHPGCYTCADCALNLKMRGHFWVGDELYCEKHAR [G34A], -0.09 ± 0.09; with HTCEKCSTSIANQAVRIQEGRYRHPGCYTCADCSLNLKMRGHFWVGDELYCEKHAR [G34S], 0.024 ± 0.076.
In the case of HTCEKCSTSIANQAVRIQCGRYRHPGCYTCADCGLNLKMRGHFWVGDELYCEKHAR [E19C] it was -0.447 ± 0.1; in that of HTCEKCSTSIANQAVRIQSGRYRHPGCYTCADCGLNLKMRGHFWVGDELYCEKHAR [E19S], -0.197 ± 0.098; in that of HTCEKCSTSIANQAVRIQTGRYRHPGCYTCADCGLNLKMRGHFWVGDELYCEKHAR [E19T], -0.068 ± 0.14.
In the case of HTCEKCSTSIANQAVRIQKGRYRHPGCYTCADCGLNLKMRGHFWVGDELYCEKHAR [E19K] it was 0.01 ± 0.07.
Take HTCEKCSFSIANQAVRIQEGRYRHPGCYTCADCGLNLKMRGHFWVGDELYCEKHAR [T8F]: the abundance fitness was -0.111 ± 0.15.
With HTCEKCSTSIANVAVRIQEGRYRHPGCYTCADCGLNLKMRGHFWVGDELYCEKHAR [Q13V] the figure was -0.327 ± 0.12; with HTCEKCSTSIANTAVRIQEGRYRHPGCYTCADCGLNLKMRGHFWVGDELYCEKHAR [Q13T], -0.11 ± 0.097.
In the case of HTCEKCSTSIANEAVRIQEGRYRHPGCYTCADCGLNLKMRGHFWVGDELYCEKHAR [Q13E] it was 0.194 ± 0.13; in that of HTCEKCSTSIANIAVRIQEGRYRHPGCYTCADCGLNLKMRGHFWVGDELYCEKHAR [Q13I], -0.778 ± 0.2.
In the case of HTCEKCSTSIANQAVRIQEGRYRHPGCYTCADCGLNLKMRGIFWVGDELYCEKHAR [H42I] it was -0.282 ± 0.24; in that of HTCEKCSTSIANQAVRIQEGRYRHPGCYNCADCGLNLKMRGHFWVGDELYCEKHAR [T29N], -0.177 ± 0.15.
